Reference: the supplement of paper PMC9112550, “Optimization of the antimicrobial peptide Bac7 by deep mutational scanning” (BMC Biology, 2022)

What follows are sequences tested on Escherichia coli TOP10 (assay: shrunken log2 fold change of peptide-encoding DNA abundance (4.5 h post-induction vs induction); higher = less antimicrobial activity (less host growth inhibition)). Details: time post-induction: 4.5 h; library: site-saturation at positions 5, 18, 19, 20.
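Also: peptides expressed intracellularly from a pBAD plasmid library in pooled LB shake-flask culture, induced with 0.3% L-arabinose, DNA abundance read by NGS, three biological replicates, DESeq2 with apeglm shrinkage.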

| Sequence | shrunken log2 fold change |
| --- | --- |
| RRIRVRPPRLPRPRPRPWRYPRP | 0.0359 |
| RRIRKRPPRLPRPRPRPTTDPRP | 0.385 |
| RRIRIRPPRLPRPRPRPINPPRP | -0.362 |
| RRIRFRPPRLPRPRPRPMSMPRP | 0.00945 |
| RRIRNRPPRLPRPRPRPGGWPRP | 0.662 |
| RRIRFRPPRLPRPRPRPDMPPRP | -0.016 |
| RRIRMRPPRLPRPRPRPLETPRP | 2.02 |
| RRIRGRPPRLPRPRPRPETIPRP | 0.224 |
| RRIRRRPPRLPRPRPRPARSPRP | 0.512 |
| RRIRSRPPRLPRPRPRPRGSPRP | 0.378 |
| RRIRHRPPRLPRPRPRPDHNPRP | -0.956 |
| RRIRARPPRLPRPRPRPTMHPRP | 0.354 |
| RRIRFRPPRLPRPRPRPNKVPRP | -0.92 |
| RRIRLRPPRLPRPRPRPGFVPRP | 0.487 |
| RRIRPRPPRLPRPRPRPREEPRP | 0.111 |
| RRIRKRPPRLPRPRPRPQHAPRP | 0.232 |
| RRIRERPPRLPRPRPRPFAEPRP | -0.326 |
| RRIRDRPPRLPRPRPRPEWGPRP | 0.0825 |
| RRIRYRPPRLPRPRPRPRCVPRP | -0.276 |
| RRIRTRPPRLPRPRPRPEEQPRP | 0.0262 |
| RRIRKRPPRLPRPRPRPRWMPRP | 0.273 |
| RRIRSRPPRLPRPRPRPLYIPRP | -0.276 |
| RRIRTRPPRLPRPRPRPASAPRP | 0.916 |
| RRIRRRPPRLPRPRPRPLPWPRP | 0.057 |
| RRIRIRPPRLPRPRPRPSSAPRP | -0.666 |

| Sequence | shrunken log2 fold change |
| --- | --- |
| RRIRTRPPRLPRPRPRPNVPPRP | -0.0447 |
| RRIRDRPPRLPRPRPRPYREPRP | -0.748 |
| RRIRSRPPRLPRPRPRPIHWPRP | 0.151 |
| RRIRTRPPRLPRPRPRPWKDPRP | 0.0143 |
| RRIRWRPPRLPRPRPRPLTDPRP | -0.0316 |
| RRIRRRPPRLPRPRPRPEPDPRP | 0.879 |
| RRIRERPPRLPRPRPRPKEVPRP | -0.324 |
| RRIRSRPPRLPRPRPRPHKAPRP | -0.1 |
| RRIRNRPPRLPRPRPRPFRIPRP | -0.0132 |
| RRIRSRPPRLPRPRPRPEERPRP | 0.826 |
| RRIRARPPRLPRPRPRPWYIPRP | -0.257 |
| RRIRWRPPRLPRPRPRPMNEPRP | 0.0689 |
| RRIRPRPPRLPRPRPRPQTWPRP | -0.254 |
| RRIRFRPPRLPRPRPRPPSYPRP | -0.0274 |
| RRIRSRPPRLPRPRPRPDKVPRP | 0.151 |
| RRIRMRPPRLPRPRPRPKNMPRP | -0.0276 |
| RRIRSRPPRLPRPRPRPHARPRP | 0.0679 |
| RRIRFRPPRLPRPRPRPAFLPRP | -0.17 |
| RRIRTRPPRLPRPRPRPSVWPRP | 0.172 |
| RRIRSRPPRLPRPRPRPGQDPRP | -0.329 |
| RRIRDRPPRLPRPRPRPDCQPRP | -0.00973 |
| RRIRTRPPRLPRPRPRPNWKPRP | -0.0427 |
| RRIRERPPRLPRPRPRPLTGPRP | -0.0199 |
| RRIRCRPPRLPRPRPRPSGIPRP | -0.154 |
| RRIRNRPPRLPRPRPRPLNFPRP | -0.71 |

| Sequence | shrunken log2 fold change |
| --- | --- |
| RRIRKRPPRLPRPRPRPYCHPRP | -0.469 |
| RRIRSRPPRLPRPRPRPTHMPRP | 0.188 |
| RRIRYRPPRLPRPRPRPNSYPRP | -2.3 |
| RRIRVRPPRLPRPRPRPIQSPRP | -0.177 |
| RRIRHRPPRLPRPRPRPQNFPRP | -0.522 |
| RRIRWRPPRLPRPRPRPNDSPRP | -0.134 |
| RRIRLRPPRLPRPRPRPVFWPRP | 0.247 |
| RRIRKRPPRLPRPRPRPAVRPRP | 0.951 |
| RRIRTRPPRLPRPRPRPRGYPRP | 0.205 |
| RRIRQRPPRLPRPRPRPKVTPRP | 0.0375 |
| RRIRWRPPRLPRPRPRPFIYPRP | -0.467 |
| RRIRRRPPRLPRPRPRPERSPRP | 0.0187 |
| RRIRDRPPRLPRPRPRPREGPRP | 1.01 |
| RRIRFRPPRLPRPRPRPEMKPRP | 0.0843 |
| RRIRTRPPRLPRPRPRPRWAPRP | 0.541 |
| RRIRMRPPRLPRPRPRPENGPRP | 0.0676 |
| RRIRPRPPRLPRPRPRPFWAPRP | 0.0614 |
| RRIRFRPPRLPRPRPRPYFSPRP | -0.245 |
| RRIRNRPPRLPRPRPRPRKVPRP | 0.445 |
| RRIRKRPPRLPRPRPRPYAFPRP | -0.111 |
| RRIRNRPPRLPRPRPRPFLSPRP | -0.246 |
| RRIRGRPPRLPRPRPRPHIYPRP | 0.0231 |
| RRIRQRPPRLPRPRPRPMSGPRP | 0.076 |
| RRIRWRPPRLPRPRPRPFNFPRP | -0.272 |
| RRIRFRPPRLPRPRPRPDMGPRP | -0.176 |

| Sequence | shrunken log2 fold change |
| --- | --- |
| RRIRFRPPRLPRPRPRPMHIPRP | -0.419 |
| RRIRVRPPRLPRPRPRPWNRPRP | -0.183 |
| RRIRQRPPRLPRPRPRPYCPPRP | -0.422 |
| RRIRQRPPRLPRPRPRPVYRPRP | -0.308 |
| RRIRHRPPRLPRPRPRPEMEPRP | -0.108 |
| RRIRRRPPRLPRPRPRPFIPPRP | -0.506 |
| RRIRTRPPRLPRPRPRPTTPPRP | 0.245 |
| RRIRGRPPRLPRPRPRPYHDPRP | -0.0405 |
| RRIRIRPPRLPRPRPRPVLNPRP | -0.492 |
| RRIRERPPRLPRPRPRPKFEPRP | -0.0495 |
| RRIRNRPPRLPRPRPRPMPLPRP | -0.0789 |
| RRIRHRPPRLPRPRPRPHNDPRP | -0.329 |
| RRIRMRPPRLPRPRPRPMPMPRP | 0.194 |
| RRIRNRPPRLPRPRPRPGWLPRP | 0.174 |
| RRIRARPPRLPRPRPRPTMNPRP | 0.0878 |
| RRIRERPPRLPRPRPRPPPHPRP | 0.619 |
| RRIRYRPPRLPRPRPRPISAPRP | -0.373 |
| RRIRERPPRLPRPRPRPKPRPRP | 0.467 |
| RRIRRRPPRLPRPRPRPPLHPRP | 0.695 |
| RRIRGRPPRLPRPRPRPRAIPRP | 0.733 |
| RRIRHRPPRLPRPRPRPSFHPRP | -0.495 |
| RRIRHRPPRLPRPRPRPHLTPRP | -0.0621 |
| RRIRHRPPRLPRPRPRPCPTPRP | -0.258 |
| RRIRVRPPRLPRPRPRPKVPPRP | -0.00247 |
| RRIRSRPPRLPRPRPRPCAMPRP | -0.173 |

| Sequence | shrunken log2 fold change |
| --- | --- |
| RRIRDRPPRLPRPRPRPLMNPRP | 0.0268 |
| RRIRWRPPRLPRPRPRPFINPRP | -0.635 |
| RRIRLRPPRLPRPRPRPQYMPRP | -0.0107 |
| RRIRYRPPRLPRPRPRPWTEPRP | -0.0689 |
| RRIRMRPPRLPRPRPRPRVGPRP | 1.02 |
| RRIRYRPPRLPRPRPRPNTSPRP | -0.423 |
| RRIRNRPPRLPRPRPRPPESPRP | -0.000194 |
| RRIRDRPPRLPRPRPRPCVHPRP | 0.412 |
| RRIRFRPPRLPRPRPRPFDAPRP | -0.0477 |
| RRIRHRPPRLPRPRPRPYKLPRP | -0.611 |
| RRIRRRPPRLPRPRPRPESLPRP | 0.0493 |
| RRIRCRPPRLPRPRPRPEDYPRP | -0.304 |
| RRIRSRPPRLPRPRPRPFWRPRP | 0.0559 |
| RRIRWRPPRLPRPRPRPPNKPRP | 0.206 |
| RRIRMRPPRLPRPRPRPNAPPRP | -0.0273 |
| RRIRERPPRLPRPRPRPGRQPRP | 0.0676 |
| RRIRSRPPRLPRPRPRPAQHPRP | 0.0967 |
| RRIRFRPPRLPRPRPRPRPPPRP | 1.36 |
| RRIRCRPPRLPRPRPRPIEQPRP | 0.0493 |
| RRIRERPPRLPRPRPRPNRRPRP | -0.0103 |
| RRIRGRPPRLPRPRPRPHMLPRP | 0.142 |
| RRIRARPPRLPRPRPRPPHRPRP | 0.931 |
| RRIRFRPPRLPRPRPRPGRAPRP | 0.712 |
| RRIRVRPPRLPRPRPRPDVSPRP | -0.0827 |
| RRIRCRPPRLPRPRPRPCGTPRP | -0.306 |

| Sequence | shrunken log2 fold change |
| --- | --- |
| RRIRIRPPRLPRPRPRPKCFPRP | -0.852 |
| RRIRPRPPRLPRPRPRPDVSPRP | 0.0525 |
| RRIRDRPPRLPRPRPRPNWRPRP | 0.46 |
| RRIRCRPPRLPRPRPRPYPAPRP | -0.53 |
| RRIRFRPPRLPRPRPRPNHIPRP | -0.937 |
| RRIRPRPPRLPRPRPRPPYVPRP | -0.0964 |
| RRIRQRPPRLPRPRPRPCVPPRP | -0.0509 |
| RRIRWRPPRLPRPRPRPLTFPRP | -0.501 |
| RRIRNRPPRLPRPRPRPVNHPRP | -0.163 |
| RRIRKRPPRLPRPRPRPMLHPRP | 0.164 |
| RRIRNRPPRLPRPRPRPNWQPRP | -0.123 |
| RRIRHRPPRLPRPRPRPVWEPRP | 0.107 |
| RRIRWRPPRLPRPRPRPAWEPRP | 0.534 |
| RRIRERPPRLPRPRPRPHCNPRP | -1.07 |
| RRIRGRPPRLPRPRPRPYYWPRP | -0.25 |
| RRIRGRPPRLPRPRPRPERSPRP | 1.36 |
| RRIRARPPRLPRPRPRPAEGPRP | 0.818 |
| RRIRCRPPRLPRPRPRPWQSPRP | -0.127 |
| RRIRQRPPRLPRPRPRPDEGPRP | -0.106 |
| RRIRPRPPRLPRPRPRPRLSPRP | 0.306 |
| RRIRDRPPRLPRPRPRPVISPRP | 0.277 |
| RRIRQRPPRLPRPRPRPQGDPRP | -0.00865 |
| RRIRRRPPRLPRPRPRPREHPRP | 0.673 |
| RRIRTRPPRLPRPRPRPPLFPRP | 0.482 |
| RRIRQRPPRLPRPRPRPQSVPRP | 0.0191 |
